Measured values taken from publication PMC4479245, “The HDAC6/APOBEC3G complex regulates HIV-1 infectiveness by inducing Vif autophagic degradation” (Retrovirology, 2015).

Experiments:
[1] = target: T1, HA-wt-HDAC6 (in vitro translated) (human, UniProt Q9UBN7 1-1215); assay: pull-down; 3 μg GST fusion protein immobilised on glutathione-Sepharose beads, 2 μg purified in vitro translated HA-tagged protein, overnight in RIPA buffer at 4°C, three washes; anti-HA blot; details: both partners purified
T1 construct: also called HA-HDAC6; source: in vitro translated (rabbit-reticulocytes system), purified on anti-HA agarose; not shown: HA, N-terminal, kept
T1 sequence (looked up): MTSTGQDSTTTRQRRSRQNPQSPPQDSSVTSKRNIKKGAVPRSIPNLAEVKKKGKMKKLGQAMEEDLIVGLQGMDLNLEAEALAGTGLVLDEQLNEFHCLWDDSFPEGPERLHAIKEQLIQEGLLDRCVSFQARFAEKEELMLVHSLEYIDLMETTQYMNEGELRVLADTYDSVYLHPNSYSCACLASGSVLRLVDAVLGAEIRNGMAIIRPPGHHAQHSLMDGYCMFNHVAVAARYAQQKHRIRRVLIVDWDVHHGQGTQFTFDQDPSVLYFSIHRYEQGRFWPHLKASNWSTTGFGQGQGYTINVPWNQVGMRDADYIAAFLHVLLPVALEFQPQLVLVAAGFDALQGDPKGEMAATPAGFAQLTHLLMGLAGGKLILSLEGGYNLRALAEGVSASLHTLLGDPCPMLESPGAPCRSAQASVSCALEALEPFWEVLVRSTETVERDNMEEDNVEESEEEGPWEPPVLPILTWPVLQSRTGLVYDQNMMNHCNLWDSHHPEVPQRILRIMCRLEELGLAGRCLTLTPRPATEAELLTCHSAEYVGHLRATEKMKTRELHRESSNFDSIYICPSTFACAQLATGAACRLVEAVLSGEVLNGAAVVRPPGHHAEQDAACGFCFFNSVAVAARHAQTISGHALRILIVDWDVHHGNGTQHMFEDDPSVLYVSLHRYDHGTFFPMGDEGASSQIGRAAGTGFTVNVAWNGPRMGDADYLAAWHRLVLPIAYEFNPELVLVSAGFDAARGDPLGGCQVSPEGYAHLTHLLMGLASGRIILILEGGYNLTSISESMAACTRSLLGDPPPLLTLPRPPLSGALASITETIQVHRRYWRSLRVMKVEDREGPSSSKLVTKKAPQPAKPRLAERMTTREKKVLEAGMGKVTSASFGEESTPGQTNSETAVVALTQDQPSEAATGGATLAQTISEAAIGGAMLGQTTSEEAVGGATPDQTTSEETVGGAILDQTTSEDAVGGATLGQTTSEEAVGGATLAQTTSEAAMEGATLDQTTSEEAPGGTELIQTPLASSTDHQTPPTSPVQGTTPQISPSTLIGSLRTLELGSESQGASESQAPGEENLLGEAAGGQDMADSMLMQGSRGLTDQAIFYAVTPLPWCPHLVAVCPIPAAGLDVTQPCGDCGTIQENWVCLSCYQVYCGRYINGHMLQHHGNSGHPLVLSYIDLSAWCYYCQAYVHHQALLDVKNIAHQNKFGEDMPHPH

[2] = target: T2, HA-dm-HDAC6 (in vitro translated) (human, UniProt Q9UBN7 1-1215, H216A | H611A); assay: as above; details: both partners purified
T2 construct: also called dead-mutant (dm) HDAC6; H216A/H611A; not shown: HA, N-terminal, kept
T2 sequence (looked up): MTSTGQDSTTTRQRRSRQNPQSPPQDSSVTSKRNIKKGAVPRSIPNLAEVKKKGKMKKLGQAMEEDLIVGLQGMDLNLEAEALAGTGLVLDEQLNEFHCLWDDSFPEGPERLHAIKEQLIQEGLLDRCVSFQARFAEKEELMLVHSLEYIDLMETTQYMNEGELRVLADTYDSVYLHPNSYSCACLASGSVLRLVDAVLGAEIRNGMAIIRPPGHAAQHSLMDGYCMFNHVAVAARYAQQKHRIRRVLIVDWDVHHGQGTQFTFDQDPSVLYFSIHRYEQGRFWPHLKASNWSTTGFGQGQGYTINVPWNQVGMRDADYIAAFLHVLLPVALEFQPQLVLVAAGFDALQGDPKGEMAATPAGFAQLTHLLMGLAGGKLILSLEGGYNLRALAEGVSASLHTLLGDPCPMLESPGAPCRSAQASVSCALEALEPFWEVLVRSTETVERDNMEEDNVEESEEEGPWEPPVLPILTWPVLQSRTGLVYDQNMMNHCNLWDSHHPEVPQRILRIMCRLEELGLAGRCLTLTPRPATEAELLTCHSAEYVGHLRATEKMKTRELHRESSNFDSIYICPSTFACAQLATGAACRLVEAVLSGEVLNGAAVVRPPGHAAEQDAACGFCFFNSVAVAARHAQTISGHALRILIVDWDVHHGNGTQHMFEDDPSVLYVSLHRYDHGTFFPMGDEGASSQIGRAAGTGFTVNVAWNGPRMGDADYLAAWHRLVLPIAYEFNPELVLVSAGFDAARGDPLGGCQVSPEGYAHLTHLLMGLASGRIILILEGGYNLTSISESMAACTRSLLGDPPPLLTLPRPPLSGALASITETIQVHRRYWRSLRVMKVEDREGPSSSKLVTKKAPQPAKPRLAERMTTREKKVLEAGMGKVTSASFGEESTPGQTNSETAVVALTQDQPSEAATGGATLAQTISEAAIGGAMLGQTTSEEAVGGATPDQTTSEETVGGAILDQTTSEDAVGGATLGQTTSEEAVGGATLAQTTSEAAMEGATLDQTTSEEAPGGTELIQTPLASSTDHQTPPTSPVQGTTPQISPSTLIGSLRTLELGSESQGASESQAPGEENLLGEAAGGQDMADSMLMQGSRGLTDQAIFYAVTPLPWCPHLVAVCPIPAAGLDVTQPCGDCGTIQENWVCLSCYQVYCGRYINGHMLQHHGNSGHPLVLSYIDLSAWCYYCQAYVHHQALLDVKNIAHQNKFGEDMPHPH

B1: GST-A3G (natural protein, human, UniProt Q9HC16 1-384, looked up)
chain: MKPHFRNTVERMYRDTFSYNFYNRPILSRRNTVWLCYEVKTKGPSRPPLDAKIFRGQVYSELKYHPEMRFFHWFSKWRKLHRDQEYEVTWYISWSPCTKCTRDMATFLAEDPKVTLTIFVARLYYFWDPDYQEALRSLCQKRDGPRATMKIMNYDEFQHCWSKFVYSQRELFEPWNNLPKYYILLHIMLGEILRHSMDPPTFTFNFNNEPWVRGRHETYLCYEVERMHNDTWVLLNQRRGFLCNQAPHKHGFLEGRHAELCFLDVIPFWKLDLDQDYRVTCFTSWSPCFSCAQEMAKFISKNKHVSLCIFTARIYDDQGRCQEGLRTLAEAGAKISIMTYSEFKHCWDTFVDHQGCPFQPWDGLDEHSQDLSGRLRAILQNQEN
notes: also called wt-A3G; GST-A3G (wt); source: E. coli BL21-DE3, purified on GSH-Sepharose
- binding result [1]: binds
- binding result [2]: binds

B2: GST-Vif (natural protein)
chain: not shown
notes: source: E. coli BL21-DE3, purified on GSH-Sepharose
- binding result [1]: binds

B3: GST-A3G-D128K (natural protein, human, UniProt Q9HC16 1-384, looked up)
chain: MKPHFRNTVERMYRDTFSYNFYNRPILSRRNTVWLCYEVKTKGPSRPPLDAKIFRGQVYSELKYHPEMRFFHWFSKWRKLHRDQEYEVTWYISWSPCTKCTRDMATFLAEDPKVTLTIFVARLYYFWKPDYQEALRSLCQKRDGPRATMKIMNYDEFQHCWSKFVYSQRELFEPWNNLPKYYILLHIMLGEILRHSMDPPTFTFNFNNEPWVRGRHETYLCYEVERMHNDTWVLLNQRRGFLCNQAPHKHGFLEGRHAELCFLDVIPFWKLDLDQDYRVTCFTSWSPCFSCAQEMAKFISKNKHVSLCIFTARIYDDQGRCQEGLRTLAEAGAKISIMTYSEFKHCWDTFVDHQGCPFQPWDGLDEHSQDLSGRLRAILQNQEN
notes: as for B2
- binding result [1]: binds
- binding result [2]: binds

B4: GST-A3G-C97A (natural protein, human, UniProt Q9HC16 1-384, looked up)
chain: MKPHFRNTVERMYRDTFSYNFYNRPILSRRNTVWLCYEVKTKGPSRPPLDAKIFRGQVYSELKYHPEMRFFHWFSKWRKLHRDQEYEVTWYISWSPATKCTRDMATFLAEDPKVTLTIFVARLYYFWDPDYQEALRSLCQKRDGPRATMKIMNYDEFQHCWSKFVYSQRELFEPWNNLPKYYILLHIMLGEILRHSMDPPTFTFNFNNEPWVRGRHETYLCYEVERMHNDTWVLLNQRRGFLCNQAPHKHGFLEGRHAELCFLDVIPFWKLDLDQDYRVTCFTSWSPCFSCAQEMAKFISKNKHVSLCIFTARIYDDQGRCQEGLRTLAEAGAKISIMTYSEFKHCWDTFVDHQGCPFQPWDGLDEHSQDLSGRLRAILQNQEN
notes: as for B2
- binding result [1]: binds
- binding result [2]: binds
